B1: HSV-1 glycoprotein D purified from HSV-1-infected BHK cells (ligand)
chain: KYALVDASLKMADPNRFRGKDLPVLDQLTDPPGVRRVYHIQAGLPDPFQPPSLPITVYYAVLERACRSVLLNAPSEAPQIVRGASEDVRKQPYNLTIAWFRMGGNCAIPITVMEYTECSYNKSLGACPIRTQPRWNYYDSFSAVSEDNLGFLMHAPAFETAGTYLRLVKINDWTEITQFILEHRAKGSCKYALPLRIPPSACLSPQAYQQGVTVDSIGMLPRFIPENQRTVAVYSLKIAGWHGPKAPYTSTLLPPELSETPNATQPELAPEDPEDSALLEDPVGTVAPQIPPNWHIPSIQDAATPYHPPATPNNMGLIAGAVGGSLLAALVICGIVYWMRRHTQKAPKRIRLPHIREDDQPSSHQPLFY
notes: also called gD; HSV gD
B2: sV(HIgR)-Fc (Fc fusion)
chain: QVVQVNDSMYGFIGTDVVLHCSFANPLPSVKITQVTWQKSTNGSKQNVAIYNPSMGVSVLAPYRERVEFLRPSFTDGTIRLSRLELEDEGVYICGFATFPTGNRESQLNLTVMA
notes: Made in COS1 cells and purified on protein A; also called V1-Fc; soluble V domain of HIgR/PRR1; not shown: IgG Fc (Fc portion of human IgG1) from the Cos Fc Link (CFL) vector

Experiments:
[1] = molecular target: T1, BSA (UniProt P02769 25-607); test: ELISA on immobilized gD
T1 construct: Unrelated control molecule

[2] = molecular target: B1; test: ELISA, gD immobilized, detection with anti-human IgG-peroxidase

T1 sequence (P02769 25-607 limits assumed): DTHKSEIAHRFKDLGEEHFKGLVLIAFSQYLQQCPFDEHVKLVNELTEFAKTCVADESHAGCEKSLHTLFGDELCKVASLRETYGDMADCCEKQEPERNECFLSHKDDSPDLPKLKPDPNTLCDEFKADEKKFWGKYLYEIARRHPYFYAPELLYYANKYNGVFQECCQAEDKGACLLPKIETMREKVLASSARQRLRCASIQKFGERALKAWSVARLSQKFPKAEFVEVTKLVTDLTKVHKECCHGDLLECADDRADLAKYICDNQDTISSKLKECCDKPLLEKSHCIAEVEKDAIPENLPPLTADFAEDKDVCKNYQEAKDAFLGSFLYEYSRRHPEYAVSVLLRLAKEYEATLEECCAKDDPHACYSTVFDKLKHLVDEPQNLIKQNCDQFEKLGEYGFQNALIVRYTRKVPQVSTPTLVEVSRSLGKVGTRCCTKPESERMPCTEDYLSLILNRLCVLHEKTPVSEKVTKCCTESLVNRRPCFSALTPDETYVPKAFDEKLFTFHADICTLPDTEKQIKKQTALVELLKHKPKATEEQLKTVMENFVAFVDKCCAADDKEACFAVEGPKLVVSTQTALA

Binder | binding result [1] | reduction in the level of saturable binding relative to sVCC(HIgR)-Fc [2]
B1 | no binding | 
B2 |  | ~30%
